Target: GAL4 DBD-tagged VIVIT PPTP chimeric peptide
Assay: two-hybrid; mammalian two-hybrid in HEK293T cells: GAL4 DBD-tagged peptides, VP16 activation domain-tagged CNAβ2 and pG5-luc cotransfected for 24 h, luciferase read-out; Fig. 4b with or without 1 μM ionomycin

Substance VP16 activation domain-tagged CNAβ2 has a fold change of the two-hybrid signal against L-1-2 WT of 1.93 fold and a fold change of the two-hybrid signal against VIVIT 10-mer of 4.76 fold.

From paper PMC9166766
